Source: the supplement of paper PMC11246515
± gives the standard deviation of the averaged measurements.

Assay: total protein half-life in vivo (active degradation + dilution); higher = more stable protein
[1] = E. coli NCM3722 delta-clpP delta-lon delta-hslV, growth: N-lim chemostat, doubling time 6 h
[2] = E. coli NCM3722 delta-clpP, growth: N-lim chemostat, doubling time 6 h
[3] = E. coli NCM3722 delta-smpB, growth: N-lim chemostat, doubling time 6 h
[4] = wild type E. coli NCM3722, growth: C-lim chemostat, doubling time 3 h
[5] = wild type E. coli NCM3722, growth: C-lim chemostat, doubling time 6 h
[6] = wild type E. coli NCM3722, growth: C-lim chemostat, doubling time 12 h
[7] = wild type E. coli NCM3722, growth: N-lim chemostat, doubling time 6 h
[8] = wild type E. coli NCM3722, growth: P-lim chemostat, doubling time 6 h
[9] = wild type E. coli NCM3722, growth: P-lim chemostat, doubling time 12 h
[10] = E. coli NCM3722 delta-hslV, growth: N-lim chemostat, doubling time 6 h
[11] = E. coli NCM3722 delta-lon, growth: N-lim chemostat, doubling time 6 h
[12] = wild type E. coli NCM3722, growth: N-lim chemostat, doubling time 12 h

MAMHLNENLDDNGEMHDINVTPFIDVMLVLLIIFMVAAPLATVDVKVNLPASTSTPQPRPEKPVYLSVKADNSMFIGNDPVTDETMITALNALTEGKKDTTIFFRADKTVDYETLMKVMDTLHQAGYLKIGLVGEETAKAK [P0ABV2]
total protein half-life in vivo [1]: 2.68 ± 0.35 h
total protein half-life in vivo [2]: 2.74 ± 0.56 h
total protein half-life in vivo [3]: 0.61 h
total protein half-life in vivo [4]: 1.34 ± 0.17 h
total protein half-life in vivo [5]: 0.847 ± 0.64 h
total protein half-life in vivo [6]: 1.88 ± 0.74 h
total protein half-life in vivo [7]: 1.12 h
total protein half-life in vivo [8]: 1.01 h
total protein half-life in vivo [9]: 2.15 h

MAMYQNMLVVIDPNQDDQPALRRAVYLHQRIGGKIKAFLPIYDFSYEMTTLLSPDERTAMRQGVISQRTAWIHEQAKYYLNAGVPIEIKVVWHNRPFEAIIQEVISGGHDLVLKMAHQHDRLEAVIFTPTDWHLLRKCPSPVWMVKDQPWPEGGKALVAVNLASEEPYHNALNEKLVKETIELAEQVNHTEVHLVGAYPVTPINIAIELPEFDPSVYNDAIRGQHLLAMKALRQKFGINENMTHVEKGLPEEVIPDLAEHLQAGIVVLGTVGRTGISAAFLGNTAEQVIDHLRCDLLVIKPDQYQTPVELDDEEDD [P0AAC0]
total protein half-life in vivo [1]: 4.78 ± 0.088 h
total protein half-life in vivo [2]: 4.77 ± 0.46 h
total protein half-life in vivo [10]: 4.73 ± 0.4 h
total protein half-life in vivo [11]: 5.473 ± 0.017 h
total protein half-life in vivo [3]: 4.47 ± 0.11 h
total protein half-life in vivo [4]: 2.97 ± 0.39 h
total protein half-life in vivo [5]: 5.6 ± 0.071 h
total protein half-life in vivo [6]: 9.86 ± 0.44 h
total protein half-life in vivo [7]: 5.01 ± 0.17 h
total protein half-life in vivo [12]: 8.64 ± 0.4 h
total protein half-life in vivo [8]: 5.56 ± 0.67 h
total protein half-life in vivo [9]: 12.2 ± 0.15 h

MANLSGYNFAYLDEQTKRMIRRAILKAVAIPGYQVPFGGREMPMPYGWGTGGIQLTASVIGESDVLKVIDQGADDTTNAVSIRNFFKRVTGVNTTERTDDATVIQTRHRIPETPLTEDQIIIFQVPIPEPLRFIEPRETETRTMHALEEYGVMQVKLYEDIARFGHIATTYAYPVKVNGRYVMDPSPIPKFDNPKMDMMPALQLFGAGREKRIYAVPPFTRVESLDFDDHPFTVQQWDEPCAICGSTHSYLDEVVLDDAGNRMFVCSDTDYCRQQSEAKNQ
total protein half-life in vivo [8]: 0.723 ± 0.41 h
total protein half-life in vivo [9]: 1.37 ± 0.74 h

MANNTTGFTRIIKAAGYSWKGLRAAWINEAAFRQEGVAVLLAVVIACWLDVDAITRVLLISSVMLVMIVEILNSAIEAVVDRIGSEYHELSGRAKDMGSAAVLIAIIVAVITWCILLWSHFG [P0ABN1]
total protein half-life in vivo [1]: 6.58 ± 0.097 h
total protein half-life in vivo [2]: 6.7 ± 1.4 h
total protein half-life in vivo [10]: 5.79 ± 0.99 h
total protein half-life in vivo [11]: 6.03 ± 0.49 h
total protein half-life in vivo [3]: 6.13 ± 0.91 h
total protein half-life in vivo [4]: 3.24 ± 0.045 h
total protein half-life in vivo [5]: 6.21 ± 0.12 h
total protein half-life in vivo [6]: 13.3 ± 2.6 h
total protein half-life in vivo [7]: 5.93 ± 0.34 h
total protein half-life in vivo [12]: 13.7 ± 3.1 h
total protein half-life in vivo [8]: 5.54 ± 0.21 h
total protein half-life in vivo [9]: 11.3 ± 0.31 h

MANPEQLEEQREETRLIIEELLEDGSDPDALYTIEHHLSADDLETLEKAAVEAFKLGYEVTDPEELEVEDGDIVICCDILSECALNADLIDAQVEQLMTLAEKFDVEYDGWGTYFEDPNGEDGDDEDFVDEDDDGVRH [P0AF90]
total protein half-life in vivo [1]: 5.62 ± 0.39 h
total protein half-life in vivo [2]: 4 ± 0.52 h
total protein half-life in vivo [10]: 3.94 ± 0.18 h
total protein half-life in vivo [11]: 5.36 ± 0.26 h
total protein half-life in vivo [3]: 3.73 ± 0.12 h
total protein half-life in vivo [4]: 2.08 h
total protein half-life in vivo [5]: 5.51 ± 1.6 h
total protein half-life in vivo [6]: 8.63 ± 2.2 h
total protein half-life in vivo [7]: 4.14 h
total protein half-life in vivo [12]: 7.72 ± 1.9 h
total protein half-life in vivo [8]: 2.61 ± 0.039 h
total protein half-life in vivo [9]: 6.57 ± 0.075 h

MANRMILNETAWFGRGAVGALTDEVKRRGYQKALIVTDKTLVQCGVVAKVTDKMDAAGLAWAIYDGVVPNPTITVVKEGLGVFQNSGADYLIAIGGGSPQDTCKAIGIISNNPEFADVRSLEGLSPTNKPSVPILAIPTTAGTAAEVTINYVITDEEKRRKFVCVDPHDIPQVAFIDADMMDGMPPALKAATGVDALTHAIEGYITRGAWALTDALHIKAIEIIAGALRGSVAGDKDAGEEMALGQYVAGMGFSNVGLGLVHGMAHPLGAFYNTPHGVANAILLPHVMRYNADFTGEKYRDIARVMGVKVEGMSLEEARNAAVEAVFALNRDVGIPPHLRDVGVRKEDIPALAQAALDDVCTGGNPREATLEDIVELYHTAW [P0A9S1]
total protein half-life in vivo [1]: 4.47 ± 0.099 h
total protein half-life in vivo [2]: 3.35 ± 0.51 h
total protein half-life in vivo [10]: 3.392 ± 0.0085 h
total protein half-life in vivo [11]: 4.76 ± 0.29 h
total protein half-life in vivo [3]: 2.66 ± 0.051 h
total protein half-life in vivo [4]: 3.02 ± 0.11 h
total protein half-life in vivo [5]: 5.64 ± 0.23 h
total protein half-life in vivo [6]: 10.6 ± 0.27 h
total protein half-life in vivo [7]: 4.48 ± 1 h
total protein half-life in vivo [12]: 4.94 ± 0.27 h
total protein half-life in vivo [8]: 5.483 ± 0.014 h
total protein half-life in vivo [9]: 10.2 ± 0.13 h

MANWQSIDELQDIASDLPRFIHALDELSRRLGLNITPLTADHISLRCHQNATAERWRRGFEQCGELLSENMINGRPICLFKLHEPVQVAHWQFSIVELPWPGEKRYPHEGWEHIEIVLPGDPETLNARALALLSDEGLSLPGISVKTSSPKGEHERLPNPTLAVTDGKTTIKFHPWSIEEIVASEQSA
total protein half-life in vivo [1]: 5.34 ± 1.4 h
total protein half-life in vivo [2]: 3.77 ± 0.15 h
total protein half-life in vivo [10]: 2.73 ± 0.29 h
total protein half-life in vivo [11]: 3.16 ± 0.24 h
total protein half-life in vivo [3]: 3.04 ± 0.023 h
total protein half-life in vivo [4]: 2.231 ± 0.0095 h
total protein half-life in vivo [5]: 3.62 ± 1.4 h
total protein half-life in vivo [6]: 5.25 ± 0.3 h
total protein half-life in vivo [7]: 3.3 h
total protein half-life in vivo [12]: 3.66 h
total protein half-life in vivo [8]: 3.83 h
total protein half-life in vivo [9]: 6.37 ± 1.2 h
